The values that follow are results of earlier work, collected in publication PMC3433420.

Read-outs that look alike come from different tables or passages of the source.

Among the targets are PIK3R3-N (Homo sapiens) (UniProt Q92569); HCK (Homo sapiens) (UniProt P08631); PIK3R1-N (Homo sapiens) (UniProt P27986); ZAP70-C (Homo sapiens) (UniProt P43403); SLA2 (Homo sapiens) (UniProt Q9H6Q3); PIK3R3-C (Homo sapiens) (UniProt Q92569); TENC1 (Homo sapiens) (UniProt Q63HR2); PLCG1-NC (Homo sapiens) (UniProt P19174); PTK6 (Homo sapiens) (UniProt Q13882); PIK3R2-N (Homo sapiens) (UniProt O00459); VAV1 (Homo sapiens) (UniProt P15498); TXK (Homo sapiens) (UniProt P42681); SHC1 (Homo sapiens) (UniProt P29353); VAV2 (Homo sapiens) (UniProt P52735); PIK3R2-NC (Homo sapiens) (UniProt O00459); SRC (Homo sapiens) (UniProt P12931); NCK1 (Homo sapiens) (UniProt P16333); PLCG1-C (Homo sapiens) (UniProt P19174); TNS3 (Homo sapiens) (UniProt Q68CZ2); PIK3R1-NC (Homo sapiens) (UniProt P27986); SLA (Homo sapiens) (UniProt Q13239); CRK (Homo sapiens) (UniProt P46108); SH2B2 (Homo sapiens) (UniProt O14492); GRB7 (Homo sapiens) (UniProt Q14451); VAV3 (Homo sapiens) (UniProt Q9UKW4); SHC3 (Homo sapiens) (UniProt Q92529); PIK3R2-C (Homo sapiens) (UniProt O00459); BLK (Homo sapiens) (UniProt P51451); PLCG2-NC (Homo sapiens) (UniProt P16885).

Common to all, as to settings: cited from earlier work
In data set [1] the target is ABL1 (Homo sapiens) (UniProt P00519).
ABL1 (Homo sapiens), sequence (P00519 122-222): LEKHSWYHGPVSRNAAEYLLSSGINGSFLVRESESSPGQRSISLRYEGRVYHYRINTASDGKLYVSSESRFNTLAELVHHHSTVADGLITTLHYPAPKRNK
Data set [2] concerns the target SYK-NC (Homo sapiens) (UniProt P43405).
The target of data set [3] is CRKL (Homo sapiens) (UniProt P46109).
CRKL (Homo sapiens), sequence (P46109 9-107): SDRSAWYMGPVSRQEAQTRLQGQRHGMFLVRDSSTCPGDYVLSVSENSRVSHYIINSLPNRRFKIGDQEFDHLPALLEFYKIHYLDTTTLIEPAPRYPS
The target of data set [4] is BCAR3 (Homo sapiens) (UniProt O75815).
BCAR3 (Homo sapiens), sequence (O75815 149-258): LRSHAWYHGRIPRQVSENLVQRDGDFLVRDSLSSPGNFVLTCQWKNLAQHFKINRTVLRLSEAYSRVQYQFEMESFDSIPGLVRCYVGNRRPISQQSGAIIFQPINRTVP
For data set [5], the target named is NCK2 (Homo sapiens) (UniProt O43639).
NCK2 (Homo sapiens), sequence (O43639 280-380): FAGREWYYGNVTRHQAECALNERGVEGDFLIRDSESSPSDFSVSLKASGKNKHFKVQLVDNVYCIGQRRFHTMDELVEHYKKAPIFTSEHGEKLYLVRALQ
Data set [6] deals with PIK3R3-NC (Homo sapiens) (UniProt Q92569).
Data set [7] concerns the target RASA1-N (Homo sapiens) (UniProt P20936).
In data set [8] the target is ABL2 (Homo sapiens) (UniProt P42684).
ABL2 (Homo sapiens), sequence (P42684 168-268): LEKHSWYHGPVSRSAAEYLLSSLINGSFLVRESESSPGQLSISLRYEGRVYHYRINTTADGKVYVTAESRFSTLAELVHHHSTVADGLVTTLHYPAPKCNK
Data set [9] addresses PIK3R3-NC (Homo sapiens) (UniProt Q92569). This is another data set of the same source.
For data set [10], the target named is ABL2 (Homo sapiens) (UniProt P42684). The source holds these as a separate data set.
Data set [11] has the same target. The source holds these as a separate data set.
Data set [12] has as its target SHC1-PTB (Homo sapiens) (UniProt P29353).
In data set [13] the target is ABL1 (Homo sapiens) (UniProt P00519). The source holds these as a separate data set.
Data set [14] deals with SHC1-PTB (Homo sapiens) (UniProt P29353). The source holds these as a separate data set.
SHC1-PTB (Homo sapiens), sequence (P29353 483-583): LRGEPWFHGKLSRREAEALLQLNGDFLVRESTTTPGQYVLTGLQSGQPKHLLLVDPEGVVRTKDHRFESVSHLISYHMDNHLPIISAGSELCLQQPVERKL
Data set [15] deals with NCK2 (Homo sapiens) (UniProt O43639). The source holds these as a separate data set.
Data set [16] deals with CRKL (Homo sapiens) (UniProt P46109). The source holds these as a separate data set.
Data set [17] has as its target NCK2 (Homo sapiens) (UniProt O43639). The source holds these as a separate data set.
For data set [18], the target named is RASA1-N (Homo sapiens) (UniProt P20936). The source holds these as a separate data set.
RASA1-N (Homo sapiens), sequence (P20936 176-446): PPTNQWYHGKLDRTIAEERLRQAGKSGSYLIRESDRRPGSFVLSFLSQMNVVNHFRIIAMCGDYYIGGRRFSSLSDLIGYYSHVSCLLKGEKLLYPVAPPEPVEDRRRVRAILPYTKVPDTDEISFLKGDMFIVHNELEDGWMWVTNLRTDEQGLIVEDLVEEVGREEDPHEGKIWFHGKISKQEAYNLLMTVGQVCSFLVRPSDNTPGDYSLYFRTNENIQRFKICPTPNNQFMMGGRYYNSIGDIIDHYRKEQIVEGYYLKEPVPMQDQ
Data set [19] addresses SHC1-PTB (Homo sapiens) (UniProt P29353). The source holds these as a separate data set.
In data set [20] the target is SYK-NC (Homo sapiens) (UniProt P43405). This is another data set of the same source.
Data set [21] concerns the target PIK3R3-NC (Homo sapiens) (UniProt Q92569). This is another data set of the same source.
The target of data set [22] is ABL2 (Homo sapiens) (UniProt P42684). This is another data set of the same source.
The target of data set [23] is BCAR3 (Homo sapiens) (UniProt O75815). The source holds these as a separate data set.

PIK3R2-C (Homo sapiens), sequence (O00459 325-721): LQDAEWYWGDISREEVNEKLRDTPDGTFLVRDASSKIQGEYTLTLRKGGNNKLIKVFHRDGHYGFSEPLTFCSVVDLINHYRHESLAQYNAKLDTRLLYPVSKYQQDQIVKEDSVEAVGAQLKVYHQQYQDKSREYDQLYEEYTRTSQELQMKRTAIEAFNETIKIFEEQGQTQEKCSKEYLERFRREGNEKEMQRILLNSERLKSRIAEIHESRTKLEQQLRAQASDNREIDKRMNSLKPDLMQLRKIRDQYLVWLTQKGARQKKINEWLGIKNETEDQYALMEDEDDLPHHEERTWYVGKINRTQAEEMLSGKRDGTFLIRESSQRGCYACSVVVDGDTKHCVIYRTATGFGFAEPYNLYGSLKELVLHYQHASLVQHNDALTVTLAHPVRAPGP
PIK3R2-NC (Homo sapiens), sequence (O00459 325-721): as above
PIK3R2-N (Homo sapiens), sequence (O00459 325-721): as above
SLA (Homo sapiens), sequence (Q13239 79-180): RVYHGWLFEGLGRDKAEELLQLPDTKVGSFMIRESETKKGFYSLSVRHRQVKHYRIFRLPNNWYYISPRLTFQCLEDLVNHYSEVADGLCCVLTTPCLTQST
VAV3 (Homo sapiens), sequence (Q9UKW4 667-771): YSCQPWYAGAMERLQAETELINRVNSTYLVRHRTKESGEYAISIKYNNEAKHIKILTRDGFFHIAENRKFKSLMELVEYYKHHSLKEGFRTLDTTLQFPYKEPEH
TENC1 (Homo sapiens), sequence (Q63HR2 1135-1252): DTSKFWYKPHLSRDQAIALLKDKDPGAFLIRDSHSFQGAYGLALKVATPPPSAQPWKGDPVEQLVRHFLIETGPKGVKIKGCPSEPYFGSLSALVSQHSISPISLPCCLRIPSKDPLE
PLCG1-NC (Homo sapiens), sequence (P19174 545-761): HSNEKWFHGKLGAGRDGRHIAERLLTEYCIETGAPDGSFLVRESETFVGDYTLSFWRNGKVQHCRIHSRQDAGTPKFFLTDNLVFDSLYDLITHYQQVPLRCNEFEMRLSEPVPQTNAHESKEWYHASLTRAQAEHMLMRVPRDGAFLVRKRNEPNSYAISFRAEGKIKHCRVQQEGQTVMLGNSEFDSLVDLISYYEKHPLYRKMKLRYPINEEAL
PLCG1-C (Homo sapiens), sequence (P19174 545-761): as above
BLK (Homo sapiens), sequence (P51451 119-225): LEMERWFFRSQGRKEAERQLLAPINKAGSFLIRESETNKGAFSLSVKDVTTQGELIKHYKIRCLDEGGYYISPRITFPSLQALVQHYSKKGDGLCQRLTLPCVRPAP
CRK (Homo sapiens), sequence (P46108 8-123): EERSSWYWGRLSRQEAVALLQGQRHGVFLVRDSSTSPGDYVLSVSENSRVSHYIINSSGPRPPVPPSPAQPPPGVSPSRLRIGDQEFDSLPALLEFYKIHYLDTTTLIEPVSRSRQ
HCK (Homo sapiens), sequence (P08631 139-246): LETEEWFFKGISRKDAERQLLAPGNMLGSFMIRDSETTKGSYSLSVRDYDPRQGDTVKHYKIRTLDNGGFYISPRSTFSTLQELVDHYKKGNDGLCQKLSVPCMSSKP
SH2B2 (Homo sapiens), sequence (O14492 412-520): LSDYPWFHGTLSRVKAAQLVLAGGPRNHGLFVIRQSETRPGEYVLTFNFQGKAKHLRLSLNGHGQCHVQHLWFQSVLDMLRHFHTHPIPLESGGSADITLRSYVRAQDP
SHC3 (Homo sapiens), sequence (Q92529 494-594): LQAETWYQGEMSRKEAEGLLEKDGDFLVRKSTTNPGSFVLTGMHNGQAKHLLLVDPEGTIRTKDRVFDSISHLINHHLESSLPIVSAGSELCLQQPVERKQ

Turning to …pYAAMGACP, the apparent Kd (screen) with PIK3R3-N (Homo sapiens) is 499 nM; in the data set with HCK (Homo sapiens), 581 nM; in the data set with ABL1 (Homo sapiens) [1], 2000 nM; in the data set with PIK3R1-N (Homo sapiens), 528 nM; with ZAP70-C (Homo sapiens) it was 1440 nM; with SLA2 (Homo sapiens) it was 2000 nM. Also, the apparent Kd (screen) was 499 nM with PIK3R3-C (Homo sapiens); 596 nM with SYK-NC (Homo sapiens) [2]; 2000 nM with TENC1 (Homo sapiens); 435 nM with CRKL (Homo sapiens) [3]; 2000 nM with BCAR3 (Homo sapiens) [4]; 720 nM with PLCG1-NC (Homo sapiens). For the same substance, the apparent Kd (screen) in the data set with NCK2 (Homo sapiens) [5] is 550 nM; with PTK6 (Homo sapiens), 440 nM; with PIK3R2-N (Homo sapiens) it was 120 nM; with VAV1 (Homo sapiens), 2000 nM; in the data set with TXK (Homo sapiens), 1670 nM; in the data set with SHC1 (Homo sapiens), 595 nM. Also, the apparent Kd (screen) is 300 nM with VAV2 (Homo sapiens); 78 nM in the data set with PIK3R2-NC (Homo sapiens); 14 nM in the data set with PIK3R3-NC (Homo sapiens) [6]; 1500 nM with SRC (Homo sapiens); 208 nM with NCK1 (Homo sapiens); 906 nM in the data set with RASA1-N (Homo sapiens) [7]. Moreover, the apparent Kd (screen) with PLCG1-C (Homo sapiens) is 689 nM; in the data set with TNS3 (Homo sapiens), 1500 nM; with PIK3R1-NC (Homo sapiens) it was 55 nM; in the data set with ABL2 (Homo sapiens) [8], 147 nM; with SLA (Homo sapiens) it was 2000 nM; in the data set with CRK (Homo sapiens) it was 264 nM. Further, the apparent Kd (screen) in the data set with SH2B2 (Homo sapiens) was 2000 nM; with GRB7 (Homo sapiens) it was 979 nM; in the data set with VAV3 (Homo sapiens) it was 1540 nM; with SHC3 (Homo sapiens) it was 636 nM; with PIK3R2-C (Homo sapiens), 926 nM.
Consider …pYHNASNGPd, for which the apparent Kd (screen) with PIK3R3-NC (Homo sapiens) [9] was 2000 nM; in the data set with ABL2 (Homo sapiens) [10], 35 nM; in the data set with ABL2 (Homo sapiens) [11] it was 755 nM; with SHC1-PTB (Homo sapiens) [12], 717 nM; with ABL1 (Homo sapiens) [13], 1820 nM; with SHC1-PTB (Homo sapiens) [14] it was 277 nM. In addition, the apparent Kd (screen) in the data set with NCK2 (Homo sapiens) [15] is 2000 nM.
Consider …pYSEAKTPI, for which the apparent Kd (screen) in the data set with CRKL (Homo sapiens) [16] is 1760 nM; with NCK2 (Homo sapiens) [17], 2000 nM; in the data set with RASA1-N (Homo sapiens) [18], 953 nM; in the data set with SHC1-PTB (Homo sapiens) [19] it was 2000 nM; with SYK-NC (Homo sapiens) [20] it was 923 nM; with PIK3R3-NC (Homo sapiens) [21], 2000 nM. Besides, the apparent Kd (screen) in the data set with ABL2 (Homo sapiens) [22] was 71 nM; with BCAR3 (Homo sapiens) [23] it was 1780 nM.
Turning to …pYSEDPTVPd, the apparent Kd (screen) was 763 nM with BLK (Homo sapiens) and 1060 nM with PLCG2-NC (Homo sapiens).
